Assay results taken from US6541450B1, “Parathyroid hormone analogues for the treatment of osteoporosis” (National Research Council of Canada, priority 1994, dated 2003).
“Also recorded” adds a separate entry of the source. Where a SMILES comes first, the peptide text is derived from it. Bridges are numbered along the chain shown (N, C = ends). Where no end group is shown, it is not given here. [ ]: non-standard residue; d: D form. Nle = CCCC[C@H](N)C(=O)O

B1: [Ile^27]cyclo(Glu^22-Lys^26)-hPTH-(1-31)-NH2 (peptide)
peptide: SVSEIQLMHNLGKHLNSMERVEWLRKILQDV-NH2
modifications: lactam 22-26; N-terminus assumed
SMILES: CC[C@H](C)[C@H](NC(=O)[C@@H]1CCCCNC(=O)CC[C@H](NC(=O)[C@@H](NC(=O)[C@H](CCCNC(=N)N)NC(=O)[C@H](CCC(=O)O)NC(=O)[C@H](CCSC)NC(=O)[C@H](CO)NC(=O)[C@H](CC(N)=O)NC(=O)[C@H](CC(C)C)NC(=O)[C@H](Cc2c[nH]cn2)NC(=O)[C@H](CCCCN)NC(=O)CNC(=O)[C@H](CC(C)C)NC(=O)[C@H](CC(N)=O)NC(=O)[C@H](Cc2c[nH]cn2)NC(=O)[C@H](CCSC)NC(=O)[C@H](CC(C)C)NC(=O)[C@H](CCC(N)=O)NC(=O)[C@@H](NC(=O)[C@H](CCC(=O)O)NC(=O)[C@H](CO)NC(=O)[C@@H](NC(=O)[C@@H](N)CO)C(C)C)[C@@H](C)CC)C(C)C)C(=O)N[C@@H](Cc2c[nH]c3ccccc23)C(=O)N[C@@H](CC(C)C)C(=O)N[C@@H](CCCNC(=N)N)C(=O)N1)C(=O)N[C@@H](CC(C)C)C(=O)N[C@@H](CCC(N)=O)C(=O)N[C@@H](CC(=O)O)C(=O)N[C@H](C(N)=O)C(C)C
B2: [Nle^27]cyclo(Glu^22-Lys^26)-hPTH-(1-31)-NH2 (peptide)
peptide: SVSEIQLMHNLGKHLNSMERVEWLRK[Nle]LQDV-NH2
modifications: lactam 22-26; N-terminus assumed
SMILES: CCCC[C@H](NC(=O)[C@@H]1CCCCNC(=O)CC[C@H](NC(=O)[C@@H](NC(=O)[C@H](CCCNC(=N)N)NC(=O)[C@H](CCC(=O)O)NC(=O)[C@H](CCSC)NC(=O)[C@H](CO)NC(=O)[C@H](CC(N)=O)NC(=O)[C@H](CC(C)C)NC(=O)[C@H](Cc2c[nH]cn2)NC(=O)[C@H](CCCCN)NC(=O)CNC(=O)[C@H](CC(C)C)NC(=O)[C@H](CC(N)=O)NC(=O)[C@H](Cc2c[nH]cn2)NC(=O)[C@H](CCSC)NC(=O)[C@H](CC(C)C)NC(=O)[C@H](CCC(N)=O)NC(=O)[C@@H](NC(=O)[C@H](CCC(=O)O)NC(=O)[C@H](CO)NC(=O)[C@@H](NC(=O)[C@@H](N)CO)C(C)C)[C@@H](C)CC)C(C)C)C(=O)N[C@@H](Cc2c[nH]c3ccccc23)C(=O)N[C@@H](CC(C)C)C(=O)N[C@@H](CCCNC(=N)N)C(=O)N1)C(=O)N[C@@H](CC(C)C)C(=O)N[C@@H](CCC(N)=O)C(=O)N[C@@H](CC(=O)O)C(=O)N[C@H](C(N)=O)C(C)C
B3: [Ala^27]cyclo(Glu^22-Lys^26)-hPTH-(1-31)-NH2 (peptide)
peptide: SVSEIQLMHNLGKHLNSMERVEWLRKALQDV-NH2
modifications: lactam 22-26; N-terminus assumed
SMILES: CC[C@H](C)[C@H](NC(=O)[C@H](CCC(=O)O)NC(=O)[C@H](CO)NC(=O)[C@@H](NC(=O)[C@@H](N)CO)C(C)C)C(=O)N[C@@H](CCC(N)=O)C(=O)N[C@@H](CC(C)C)C(=O)N[C@@H](CCSC)C(=O)N[C@@H](Cc1c[nH]cn1)C(=O)N[C@@H](CC(N)=O)C(=O)N[C@@H](CC(C)C)C(=O)NCC(=O)N[C@@H](CCCCN)C(=O)N[C@@H](Cc1c[nH]cn1)C(=O)N[C@@H](CC(C)C)C(=O)N[C@@H](CC(N)=O)C(=O)N[C@@H](CO)C(=O)N[C@@H](CCSC)C(=O)N[C@@H](CCC(=O)O)C(=O)N[C@@H](CCCNC(=N)N)C(=O)N[C@H](C(=O)N[C@H]1CCC(=O)NCCCC[C@@H](C(=O)N[C@@H](C)C(=O)N[C@@H](CC(C)C)C(=O)N[C@@H](CCC(N)=O)C(=O)N[C@@H](CC(=O)O)C(=O)N[C@H](C(N)=O)C(C)C)NC(=O)[C@H](CCCNC(=N)N)NC(=O)[C@H](CC(C)C)NC(=O)[C@H](Cc2c[nH]c3ccccc23)NC1=O)C(C)C
B4: α-acetyl-[Leu^27]cyclo(Glu^22-Lys^26)-hPTH-(1-31)-NH2 (peptide)
peptide: Ac-SVSEIQLMHNLGKHLNSMERVEWLRKLLQDV-NH2
modifications: lactam 22-26
SMILES: CC[C@H](C)[C@H](NC(=O)[C@H](CCC(=O)O)NC(=O)[C@H](CO)NC(=O)[C@@H](NC(=O)[C@H](CO)NC(C)=O)C(C)C)C(=O)N[C@@H](CCC(N)=O)C(=O)N[C@@H](CC(C)C)C(=O)N[C@@H](CCSC)C(=O)N[C@@H](Cc1c[nH]cn1)C(=O)N[C@@H](CC(N)=O)C(=O)N[C@@H](CC(C)C)C(=O)NCC(=O)N[C@@H](CCCCN)C(=O)N[C@@H](Cc1c[nH]cn1)C(=O)N[C@@H](CC(C)C)C(=O)N[C@@H](CC(N)=O)C(=O)N[C@@H](CO)C(=O)N[C@@H](CCSC)C(=O)N[C@@H](CCC(=O)O)C(=O)N[C@@H](CCCNC(=N)N)C(=O)N[C@H](C(=O)N[C@H]1CCC(=O)NCCCC[C@@H](C(=O)N[C@@H](CC(C)C)C(=O)N[C@@H](CC(C)C)C(=O)N[C@@H](CCC(N)=O)C(=O)N[C@@H](CC(=O)O)C(=O)N[C@H](C(N)=O)C(C)C)NC(=O)[C@H](CCCNC(=N)N)NC(=O)[C@H](CC(C)C)NC(=O)[C@H](Cc2c[nH]c3ccccc23)NC1=O)C(C)C
B5: cyclo(Glu^22-Lys^26)-hPTH-(1-31)-NH2 (peptide)
peptide: SVSEIQLMHNLGKHLNSMERVEWLRKKLQDV-NH2
modifications: lactam 22-26; N-terminus assumed
SMILES: CC[C@H](C)[C@H](NC(=O)[C@H](CCC(=O)O)NC(=O)[C@H](CO)NC(=O)[C@@H](NC(=O)[C@@H](N)CO)C(C)C)C(=O)N[C@@H](CCC(N)=O)C(=O)N[C@@H](CC(C)C)C(=O)N[C@@H](CCSC)C(=O)N[C@@H](Cc1c[nH]cn1)C(=O)N[C@@H](CC(N)=O)C(=O)N[C@@H](CC(C)C)C(=O)NCC(=O)N[C@@H](CCCCN)C(=O)N[C@@H](Cc1c[nH]cn1)C(=O)N[C@@H](CC(C)C)C(=O)N[C@@H](CC(N)=O)C(=O)N[C@@H](CO)C(=O)N[C@@H](CCSC)C(=O)N[C@@H](CCC(=O)O)C(=O)N[C@@H](CCCNC(=N)N)C(=O)N[C@H](C(=O)N[C@H]1CCC(=O)NCCCC[C@@H](C(=O)N[C@@H](CCCCN)C(=O)N[C@@H](CC(C)C)C(=O)N[C@@H](CCC(N)=O)C(=O)N[C@@H](CC(=O)O)C(=O)N[C@H](C(N)=O)C(C)C)NC(=O)[C@H](CCCNC(=N)N)NC(=O)[C@H](CC(C)C)NC(=O)[C@H](Cc2c[nH]c3ccccc23)NC1=O)C(C)C
B6: [Nle^8,18, Leu^27]cyclo(Glu^22-Lys^26)-hPTH-(1-31)-NH2 (peptide)
peptide: SVSEIQL[Nle]HNLGKHLNS[Nle]ERVEWLRKLLQDV-NH2
modifications: lactam 22-26; N-terminus assumed
SMILES: CCCC[C@H](NC(=O)[C@H](CO)NC(=O)[C@H](CC(N)=O)NC(=O)[C@H](CC(C)C)NC(=O)[C@H](Cc1c[nH]cn1)NC(=O)[C@H](CCCCN)NC(=O)CNC(=O)[C@H](CC(C)C)NC(=O)[C@H](CC(N)=O)NC(=O)[C@H](Cc1c[nH]cn1)NC(=O)[C@H](CCCC)NC(=O)[C@H](CC(C)C)NC(=O)[C@H](CCC(N)=O)NC(=O)[C@@H](NC(=O)[C@H](CCC(=O)O)NC(=O)[C@H](CO)NC(=O)[C@@H](NC(=O)[C@@H](N)CO)C(C)C)[C@@H](C)CC)C(=O)N[C@@H](CCC(=O)O)C(=O)N[C@@H](CCCNC(=N)N)C(=O)N[C@H](C(=O)N[C@H]1CCC(=O)NCCCC[C@@H](C(=O)N[C@@H](CC(C)C)C(=O)N[C@@H](CC(C)C)C(=O)N[C@@H](CCC(N)=O)C(=O)N[C@@H](CC(=O)O)C(=O)N[C@H](C(N)=O)C(C)C)NC(=O)[C@H](CCCNC(=N)N)NC(=O)[C@H](CC(C)C)NC(=O)[C@H](Cc2c[nH]c3ccccc23)NC1=O)C(C)C
B7: [Tyr^27]cyclo(Glu^22-Lys^26)-hPTH-(1-31)-NH2 (peptide)
peptide: SVSEIQLMHNLGKHLNSMERVEWLRKYLQDV-NH2
modifications: lactam 22-26; N-terminus assumed
SMILES: CC[C@H](C)[C@H](NC(=O)[C@H](CCC(=O)O)NC(=O)[C@H](CO)NC(=O)[C@@H](NC(=O)[C@@H](N)CO)C(C)C)C(=O)N[C@@H](CCC(N)=O)C(=O)N[C@@H](CC(C)C)C(=O)N[C@@H](CCSC)C(=O)N[C@@H](Cc1c[nH]cn1)C(=O)N[C@@H](CC(N)=O)C(=O)N[C@@H](CC(C)C)C(=O)NCC(=O)N[C@@H](CCCCN)C(=O)N[C@@H](Cc1c[nH]cn1)C(=O)N[C@@H](CC(C)C)C(=O)N[C@@H](CC(N)=O)C(=O)N[C@@H](CO)C(=O)N[C@@H](CCSC)C(=O)N[C@@H](CCC(=O)O)C(=O)N[C@@H](CCCNC(=N)N)C(=O)N[C@H](C(=O)N[C@H]1CCC(=O)NCCCC[C@@H](C(=O)N[C@@H](Cc2ccc(O)cc2)C(=O)N[C@@H](CC(C)C)C(=O)N[C@@H](CCC(N)=O)C(=O)N[C@@H](CC(=O)O)C(=O)N[C@H](C(N)=O)C(C)C)NC(=O)[C@H](CCCNC(=N)N)NC(=O)[C@H](CC(C)C)NC(=O)[C@H](Cc2c[nH]c3ccccc23)NC1=O)C(C)C

Columns and labels:
[1] = tested on: anesthetized female Sprague-Dawley rats; experiment: Hypotensive effect, tail artery pressure in anaesthetized rats
Protocol: Female Sprague-Dawley rats (weighing over 290 g) were anaesthetized with intraperitoneally injected sodium pentobarbital (65 mg/kg body weight). Rectal temperature was monitored with a YS1402 thermistor (Yellow Springs Instrument Co., Inc. Yellow Springs, Ohio) and maintained between 36.0 and 38.5° C. throughout the experiment. Ear pinna temperature was also monitored using a YSi banjo thermistor. The tail artery was exposed to cannulated with a Jelco 25-gIV catheter (Johnson and Johnson Medical Inc., Arlington, Tex.) and connected to a Statham pressure transducer, the signals from which were recorded digitally with a Biopac Systems MP100 Monitor (Harvard Instruments, Saint Laurent, QC, Canada). For intravenous injection of PTH or one of its fragments, a femoral vein was also exposed. After surgery, the rat was allowed to stabilize for 8 min after which PTH or one of its fragments (dissolved in acidified saline containing 0.001 N HCl) was injected into the femoral vein or under the skin of the abdomen. Data were collected for 12 min after intravenous injection or for 22 min after subcutaneous injection.

PTH receptor = PTH receptor (rat (ROS 17/2 rat osteosarcoma cell …, UniProt P25961)); experiment: cell-based or functional assay
[2] = intravenous, 0.8 nmol/100 g of body weight

| Molecule | Adenylyl Cyclase (EC50) (PTH receptor) [nM] | also measured |
| --- | --- | --- |
| CC[C@H](C)[C@H](NC(=O)[C@H](CCC(=O)O)NC(=O)[C@H](CO)NC(=O)[C@@H](NC(=O)[C@@H](N)CO)C(C)C)C(=O)N[C@@H](CCC(N)=O)C(=O)N[C@@H](CC(C)C)C(=O)N[C@@H](CCSC)C(=O)N[C@@H](Cc1c[nH]cn1)C(=O)N[C@@H](CC(N)=O)C(=O)N[C@@H](CC(C)C)C(=O)NCC(=O)N[C@@H](CCCCN)C(=O)N[C@@H](Cc1c[nH]cn1)C(=O)N[C@@H](CC(C)C)C(=O)N[C@@H](CC(N)=O)C(=O)N[C@@H](CO)C(=O)N[C@@H](CCSC)C(=O)N[C@@H](CCC(=O)O)C(=O)N[C@@H](CCCNC(=N)N)C(=O)N[C@H](C(=O)N[C@H]1CCC(=O)NCCCC[C@@H](C(=O)N[C@@H](CC(C)C)C(=O)N[C@@H](CC(C)C)C(=O)N[C@@H](CCC(N)=O)C(=O)N[C@@H](CC(=O)O)C(N)=O)NC(=O)[C@H](CCCNC(=N)N)NC(=O)[C@H](CC(C)C)NC(=O)[C@H](Cc2c[nH]c3ccccc23)NC1=O)C(C)C [compound 8, [Leu^27]cyclo(Glu^22Lys^26)-hPTH-(1-30)-NH2] (H-SVSEIQLMHNLGKHLNSMERVEWLRKLLQD-NH2; lactam 22-26) |  | total blood pressure drop versus other analogues ([1]; subcutaneously or intravenously, 0.8 nmol/100 g of body weight): not significantly different (p>0.05) |
| hPTH-(7-84) [reference compound] |  | hypotensive action, in words ([1]; intravenous injection): not significantly hypotensive; also recorded: did not significantly affect tail artery pressure; reduction of tail artery pressure [1, 2]: 3.28±1.0 mm Hg; time to maximum drop in tail artery pressure [1, 2]: 9.8 ± 2.0 min |
| SVSEIQLMHNLGKHLNSMERVEWLRKKLQDV-NH2 [hPTH-(1-31)-NH2] | 20 |  |
| B1 | 9 |  |
| B2 | 9 |  |
| B3 | 9 |  |
| B4 | 24 |  |
| B5 | 17 |  |
| B6 | 6 |  |
| B7 | 9 |  |
